Test: soluble on expression in E. coli; label from the status in PepcDB or PDB records
In the case of “MGSKGVYQYHWQSHNVKHSGVDDMVLLSKITENSIVENLKKRYMDDYIFTYIGSVLISVNPFKQMPYFGEKEIEMYQGAAQYENPPHIYALADNMYRNMIIDRENQCVIISGESGAGKTVAAKYIMSYISRVSGGGTKVQHVKDIILQSNPLLEAFGNAKTVRNNNSSRFGKYFEIQFSPGGEPDGGKISNFLLEKSRVVMRNPGERSFHIFYQLIEGASAEQKHSLGITSMDYYYYLSLSGSYKVDDIDDRREFQETLHAMNVIGIFAEEQTLVLQIVAGILHLGNISFKEVGNYAAVESEEFLAFPAYLLGINQDRLKEKLTSRQMDSKWGGKSESIHVTLNVEQACYTRDALAKALHARVFDFLVDSINKAMEKDHEEYNIGVLDIYGFEIFQKNGFEQFCINFVNEKLQQIFIELTLKAEQEEYVQEGIRWTPIEYFNNKIVCDLIENKVNPPGIMSILDDVCATMHAVGEGADQTLLQKLQMQIGSHEHFNSWNQGFIIHHYAGKVSYDMDGFCERNRDVLFMDLIELMQSSELPFIKSLFPENLQADKKGRPTTAGSKIKKQANDLVSTLMKCTPHYIRCIKPNETKKPRDWEESRVKHQVEYLGLKENIRVRRAGYAYRRIFQKFLQRYAILTKATWPSWQGEEKQGVLHLLQSVNMDSDQFQLGRSKVFIKAPESLFLLEEMRERKYDGYARVIQKSWRKFVARKKYVQMREEASDLLLNKKERRRNSINRNFIGDYIGMEEHPELQQFVGKREKIDFADTVTKYDRRFKGVKRDLLLTPKCLYLIGREKVKQGPDKGLVKEVLKRKIEIERILSVSLSTMQDDIFILHEQEYDSLLESVFKTEFLSLLAKRYEEKTQKQLPLKFSNTLELKLKKENWGPWSAGGSRQVQFHQGFGDLAVLKPSNKVLQVSIGPGLPKNSRPTRRNTTQNTGYSSGTQNANYPVRAAPPPPGYHQNGVIRNQYVPYPHAPGSQRSNQKSLYTSMARPPLPRQQSTSSDRVSQTPESLDFLKVPDQGAAGVRRQTTSRPPPAGGRPKPQPKPKPQVPQCKALYAYDAQDTDELSFNANDIIDIIKEDPSGWWTGRLRGKQGLFPNNYVTKI”, the “soluble on expression in E. coli” value is reported as “soluble”. With “ATEAHPAGGRLVLRPVRKSDAGLFAMYAGDRRVAEGTRGIPHPLPPGAAEAFVNRSTAEARSEDVWVMDGSASGLSEVLGVISLKRMDRDQSEIAYWVAPAFWNAGFASEAVRALIEANPQGSRTIFAEVFQDNPQSARVLTNCGFEYIGDAEAFSVARNARVPTWTY” the “soluble on expression in E. coli” value was “not soluble”. For “VTQQSRQLLDVTRIYYEPAAAELPRGRQVLERWPDATLVPVESHWRIPELHGDETNVDRWVRIKREALVLGIKKSLTAKPNGRSADFIAPSTANGCAMACAYCYVPRRKGYSNPITVFTNIEQITGYLERHVHRQGVKPEPNQCDPASWVYDLGENSDCSVDAEVSDNVDDLIALFRGLPTAKASFATKHVNRRLLTLDPQGRTRVRFSLMPARVAKLLDVRTSPVPERLGALDDFVAAGYEVHVNLSPVVVHEDWLPVWAALLDELGDATNDATKAQLQAEVIFLTHEENLHRVNLGWHPKAEDLLWRPAMQETKRSQNGGVNVRYRTGDKGRYVQQLLALIEERAPYLRVRYAF”, the “soluble on expression in E. coli” value was “soluble”. In the case of “MKTLIEIKQTPDGIIKADKVFNKVKDKISLPNRILYLGCGSSHFLSKLLAMVTNMHGGLGIALPCSEFLYSKETYPIGEVELAVGISRSGETTEILLALEKINVKKLGITTRESSLTRMCDYSLVVPAIEESVVMTHSFTSFYFAYLQLLRYSYGLPPLNAGEISKATEKSLEYERYIREIVESFDFQNIIFLGSGLLYPVALEASLKMKEMSIFWSEAYPTFEVRHGFKAIADEKTLVVLMVEEPFEWHEKLVKEFKNQGAKVLVISNSPQDLGQDYSIELPRLSKDANPIPYLPIVQLLSYYKAVSRGLNPDNPRFLDKVVRW”, the “soluble on expression in E. coli” value is reported as “soluble”. For “MPVKRSLKLDGLLEENSFDPSKITRKKSVITYSPTTGTCQMSLFASPTSSEEQKHRNGLSNEKRKKLNHPSLTESKESTTKDNDEFMMLLSKVEKLSEEIMEIMQNLSSIQALEGSRELENLIGISCASHFLKREMQKTKELMTKVNKQKLFEKSTGLPHKGQPQMSQPLLEHHHHHH”, the “soluble on expression in E. coli” value was “soluble”.

Reference: the DeepSol protein solubility set
